Assay [1] has as its target T1, Recombinant mouse LAG3-Fc fusion protein (mouse, UniProt Q61790 24-442, limits assumed).
T1 construct: Bought; not shown: Fc part; not described
T1 sequence (looked up): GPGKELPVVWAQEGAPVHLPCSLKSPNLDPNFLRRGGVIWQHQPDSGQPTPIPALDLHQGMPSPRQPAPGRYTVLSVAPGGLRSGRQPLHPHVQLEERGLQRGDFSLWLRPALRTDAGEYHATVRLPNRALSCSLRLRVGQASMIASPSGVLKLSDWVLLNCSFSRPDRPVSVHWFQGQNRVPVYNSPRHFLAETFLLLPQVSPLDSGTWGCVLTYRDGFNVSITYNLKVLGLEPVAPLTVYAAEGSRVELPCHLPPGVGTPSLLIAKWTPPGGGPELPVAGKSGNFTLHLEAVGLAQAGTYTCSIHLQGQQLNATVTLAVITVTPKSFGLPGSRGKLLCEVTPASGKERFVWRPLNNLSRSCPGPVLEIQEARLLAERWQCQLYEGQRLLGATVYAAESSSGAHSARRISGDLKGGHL
In words: ELISA, plate coated with mouse LAG3-Fc. The method, then:
The plate is washed 3 times with PBS containing 0.05% Tween 20 (PBST). The plate is blocked with PBS containing 5% skimmed milk for 1 hour at room temperature. […] The plate is washed 3 times with PBST, and 30 μl of 1:2000 diluted horseradish peroxidase-labeled goat anti-human IgG kappa light chain secondary antibody (millipore) is added thereto, and the plate is allowed to stand at room temperature for 1 hour. The plate is washed 6 times with PBST, and TMB is added thereto for color development. The reaction is stopped with 2M H₂SO₄. The plate is read at 450 nm with a microplate reader.

For assay [2], the target named is T2, LAG3-Fc recombinant protein (UniProt P18627 23-450).
T2 construct: also called LAG3-Fc (Acro); LAG3-Fc protein; not shown: Fc part
T2 sequence (looked up): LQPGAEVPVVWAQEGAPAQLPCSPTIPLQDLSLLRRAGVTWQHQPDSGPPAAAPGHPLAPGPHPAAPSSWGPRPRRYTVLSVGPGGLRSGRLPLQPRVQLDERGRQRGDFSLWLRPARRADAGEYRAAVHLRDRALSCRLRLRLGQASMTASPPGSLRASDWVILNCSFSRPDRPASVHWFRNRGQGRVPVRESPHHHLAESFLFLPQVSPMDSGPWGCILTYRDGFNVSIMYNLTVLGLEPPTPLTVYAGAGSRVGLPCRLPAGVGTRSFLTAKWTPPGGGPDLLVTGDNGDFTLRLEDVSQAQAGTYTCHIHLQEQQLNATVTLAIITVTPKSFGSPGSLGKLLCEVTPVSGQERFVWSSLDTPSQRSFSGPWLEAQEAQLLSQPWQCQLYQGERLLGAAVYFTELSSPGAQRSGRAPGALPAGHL
Kind of assay: ELISA on coated LAG3-Fc, anti-human kappa-HRP. The method, then:
The affinity of the humanized antibody for LAG3 is detected by an ELISA technique. […] The plate is washed 3 times with PBS containing 0.05% Tween 20 (PBST). The plate is blocked with PBS containing 5% skimmed milk for 1 hour at room temperature. […] The plate is washed 3 times with PBST, and 30 μl of 1:4000 diluted horseradish peroxidase-labeled goat anti-human IgG kappa light chain secondary antibody (Millipore) is added thereto, and the plate is allowed to stand at room temperature for 1 hour. The plate is washed 6 times with PBST, and TMB is added thereto for color development. The reaction is stopped with 2M H₂SO₄. The plate is read at 450 nm with a microplate reader.

In assay [3] the target is T3, full-length human LAG3 on the cell surface (transfected CHO-S or Jurkat cells) (human, UniProt P18627 23-525).
T3 construct: whole, on cells; also called LAG3 on the cell membrane
T3 sequence (looked up): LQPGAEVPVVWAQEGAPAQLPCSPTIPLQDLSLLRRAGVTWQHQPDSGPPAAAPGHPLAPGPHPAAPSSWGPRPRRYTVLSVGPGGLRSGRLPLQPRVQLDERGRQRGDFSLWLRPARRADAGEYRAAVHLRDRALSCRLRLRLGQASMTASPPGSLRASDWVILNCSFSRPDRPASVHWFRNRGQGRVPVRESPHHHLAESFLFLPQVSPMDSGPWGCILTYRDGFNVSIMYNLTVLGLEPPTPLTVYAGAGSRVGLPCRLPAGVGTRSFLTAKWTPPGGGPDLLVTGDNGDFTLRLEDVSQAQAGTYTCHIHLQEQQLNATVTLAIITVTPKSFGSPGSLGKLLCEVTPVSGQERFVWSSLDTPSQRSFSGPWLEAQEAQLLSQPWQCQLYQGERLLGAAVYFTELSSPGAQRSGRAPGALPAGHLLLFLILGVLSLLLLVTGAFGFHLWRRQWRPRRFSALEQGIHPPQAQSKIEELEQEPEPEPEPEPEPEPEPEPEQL
In words: flow cytometry on CHO-S cells expressing full-length human LAG3 [panel 6A]. As to the method:
(§1) The binding of the humanized antibodies to LAG3 on the cell surface is determined by a flow cytometry method. The transfected CHO-S or Jurkat cells expressing the full-length human LAG3 gene are taken and washed twice with PBS (2% FBS), and the cell concentration is adjusted to 5×10⁵/100 μl. 1:3 gradient-diluted anti-LAG3 humanized antibody is added, and incubated at 4° C. for 30 min. […] The cells are centrifuged at 500×g for 5 min. The cells are washed twice with PBS (2% FBS). 1:300 diluted goat anti-human IgG Fab-FITC (Thermo Fisher) is added, and incubated at 4° C. for 30 min. The cells are washed twice with PBS (2% FBS). The cells are suspended in 200 μl PBS and analyzed by flow cytometry.

Assay [4] addresses T2, LAG3-Fc recombinant protein. Kind of assay: SPR, LAG3-Fc immobilized on the chip, antibody in flow, 1:1 Langmuir fit. As to the method:
Surface plasmon resonance (SPR) is used to measure the binding affinity and kinetic constants of the anti-LAG3 humanized antibody for the LAG3 protein. […] The data obtained from the experiments are analyzed using an evaluation software, and the curve is fitted with a 1:1 Langmuir binding model.
In general terms: SPR reads the build-up and loss of mass on a sensor chip optically.

The next assay addresses T4, Tag1-LAG3 protein (UniProt P18627 23-450).
T4 construct: also called LAG3 (Cisbio kit)
In words: HTRF blocking assay (Cisbio kit): Tag1-LAG3 with Tag2-FGL1 and antibody. As to the method: The mixture is reacted at room temperature for 15 minutes, and then 10 μL of pre-mixed anti-Tag1-Tb3+ and anti-Tag2-XL665 are added thereto.
A general note: Time-resolved FRET reads energy transfer from a long-lived donor to a nearby acceptor.

The target of assay [5] is T3, full-length human LAG3 on the cell …. Kind of assay: flow cytometry on Jurkat cells expressing full-length human LAG3 [panel 6B]. As to the method: as §1
(In general: Flow cytometry measures light scatter and fluorescence of single cells or particles in a stream.)

The target of assay [6] is T5, Recombinant cynomolgus monkey LAG3-Fc fusion protein (cynomolgus monkey).
T5 construct: Bought; also called cynomolgus monkey LAG3-Fc protein
Kind of assay: SPR, cynomolgus monkey LAG3-Fc immobilized on the chip, antibody in flow, 1:1 Langmuir fit. The method, then: Surface plasmon resonance (SPR) is used to measure the binding affinity and kinetic constants of the anti-LAG3 humanized antibody for the cynomolgus monkey LAG3 protein. […] The data obtained from the experiments are analyzed using an evaluation software, and the curve is fitted with a 1:1 Langmuir binding model.

Assay [7] has as its target T2, LAG3-Fc recombinant protein. In words: flow cytometry blocking assay: antibody premixed with LAG3-Fc (2 µg/ml), binding to MHC II on Raji cells. The method, then: Raji cells are washed twice with PBS (2% FBS), and the cell concentration is adjusted to 2×10⁵/100 μl. […] The mixture is then mixed with the Raji cells and incubated at 4° C. for 60 min. The cells are centrifuged at 500×g for 5 min. The cells are washed twice with PBS (2% FBS). 1:500 diluted goat anti-human IgG-Fc-Alexa Fluor 488 (Jackson) is added, and incubated at 4° C. for 60 min. The cells are washed twice with PBS (2% FBS). The cells are suspended in 200 μl PBS and analyzed by flow cytometry.

The target is the same in assay [8]. In words: ELISA blocking assay: antibody mixed with LSECtin, added to coated LAG3-Fc, bound LSECtin detected with anti-His-HRP. The method, then: The plate is washed 3 times with PBS containing 0.05% Tween 20 (PBST). […] The plate is washed 6 times with PBST, and TMB is added thereto for color development. The reaction is stopped with 2M H₂SO₄. The plate is read at 450 nm with a microplate reader.

The target of assay [9] is T3, full-length human LAG3 on the cell …. In words: flow cytometry on Jurkat cells expressing full-length human LAG3, anti-mouse IgG-FITC. The method, then: (§2) The transfected Jurkat cells expressing the full-length human LAG3 gene are taken and washed twice with PBS (2% FBS), and the cell concentration is adjusted to 2×10⁵/100 μl. […] The cells are centrifuged at 500×g for 5 min. […] The cells are washed twice with PBS (2% FBS). […] The cells are washed twice with PBS (2% FBS). The cells are suspended in 200 μl PBS and analyzed by flow cytometry.

Assay [10] has the same target. In words: flow cytometry on Jurkat cells expressing full-length human LAG3, anti-human IgG Fab-FITC. The method, then:
as §2

Numbering of substitutions follows the chain as printed.

We go through four molecules from patent US20230074657A1 (SHANGHAI HENLIUS BIOTECH, published 2023).

B1: anti-LAG3 humanized antibody h6H11B10 (antibody, human IgG4 S228P)
heavy: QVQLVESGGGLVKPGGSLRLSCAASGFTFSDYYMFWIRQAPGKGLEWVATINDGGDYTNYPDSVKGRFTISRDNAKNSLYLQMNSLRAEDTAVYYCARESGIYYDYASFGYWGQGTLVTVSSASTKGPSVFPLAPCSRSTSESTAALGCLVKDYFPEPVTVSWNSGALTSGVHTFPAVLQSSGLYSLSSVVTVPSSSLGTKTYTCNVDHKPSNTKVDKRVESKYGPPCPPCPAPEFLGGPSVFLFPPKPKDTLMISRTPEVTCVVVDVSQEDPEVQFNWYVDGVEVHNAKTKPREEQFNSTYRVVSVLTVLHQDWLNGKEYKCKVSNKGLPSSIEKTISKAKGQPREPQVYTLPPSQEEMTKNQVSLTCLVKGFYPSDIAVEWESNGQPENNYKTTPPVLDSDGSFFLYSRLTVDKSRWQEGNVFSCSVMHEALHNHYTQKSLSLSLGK
light: DIVMTQSPLSLSVTPGEPASISCRSSKSLLYSNGITYLYWYLQKPGQSPQLLIYQMSNLASGVPDRFSGSGSGTDFTLKISRVEAEDVGVYYCAQNLELPWTFGGGTKLEIKRNLAAPSVFIFPPSDEQLKSGTASVVCLLNNFYPREAKVQWKVDNALQSGNSQESVTEQDSKDSTYSLSSTLTLSKADYEKHKVYACEVTHQGLSSPVTKSFNRGEC
notes: Expressed in CHO-S cells
As to B1, the binding result in assay [1] is reported as “binds”. In addition, the “EC50 (read off the curve)” value in assay [2] and in [3] was roughly 0.3 µg/mL throughout.

B2: anti-LAG3 humanized antibody h6H11B10#40 (antibody, human IgG4 S228P)
heavy: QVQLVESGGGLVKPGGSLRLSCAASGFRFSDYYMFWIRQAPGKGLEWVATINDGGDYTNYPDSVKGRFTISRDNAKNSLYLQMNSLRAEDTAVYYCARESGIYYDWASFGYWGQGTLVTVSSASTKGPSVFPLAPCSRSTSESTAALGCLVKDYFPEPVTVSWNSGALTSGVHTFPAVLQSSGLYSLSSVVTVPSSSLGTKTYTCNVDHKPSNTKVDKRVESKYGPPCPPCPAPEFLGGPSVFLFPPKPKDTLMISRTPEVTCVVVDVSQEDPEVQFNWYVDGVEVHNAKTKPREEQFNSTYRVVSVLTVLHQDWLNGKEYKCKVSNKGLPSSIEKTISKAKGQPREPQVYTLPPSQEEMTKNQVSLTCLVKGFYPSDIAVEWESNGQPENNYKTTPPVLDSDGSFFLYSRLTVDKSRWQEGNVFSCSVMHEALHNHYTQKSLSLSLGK
light: B1 light with L30K
notes: Expressed in CHO-S cells
Take B2: the EC50 (read off the curve) (commonly the concentration giving half of the maximal effect) in assay [2] is roughly 0.2 µg/mL; in assay [3], roughly 0.4 µg/mL; in assay [5], roughly 0.01 µg/mL. Further, the values for the Kd in assay [4] and in assay [6] were 0.313 nM and 1.42 nM, respectively. In addition, the koff (as a rule, the rate constant with which the complex falls apart) in assay [4] came to 1.37e-05 s⁻¹; in assay [6], 3.09e-05 s⁻¹. Also, the kon (commonly a measure of how fast the partners come together) in assay [4] turned out to be 43500 M⁻¹ s⁻¹; in assay [6] it was 21700 M⁻¹ s⁻¹. The “IC50 (read off the curve)” value in the assay with Tag1-LAG3 protein was roughly 2 µg/mL; in [7], roughly 0.5 µg/mL; in assay [8] it was roughly 1 µg/mL.

B3: anti-LAG3 murine antibody 6H11B10 (antibody, V domains shown)
VH: EVQVVESGGGLVKPGGSLKLSCAASGFTFSDYYMFWVRQTPEERLEWVATINDGGDYTNYPDSVKGRFTISRDNDKNKLYLQMNSLKSEDTAMYYCARESGIYYDYASFGYWGQGTLVTVSS
VL: DIVMTQAAFSNPVTLGTSASISCRSSKSLLYSNGITYLYWYLQKPGQSPQLLIYQMSNLASGVPDRFSSSGSGTDFTLRISRVEAEDVGVYYCAQNLELPWTFGGGTKLEIKRNL
notes: also called m6H11B10; monoclonal hybridoma cell line 6H11B10
With B3, in assay [9], the binding result is “binds”.

B4: anti-LAG3 chimeric antibody c6H11B10 (antibody, human IgG4 S228P, V domains shown)
VH: B3 VH
VL: DIVMTQAAFSNPVTLGTSASISCRSSKSLLYSNGITYLYWYLQKPGQSPQLLIYQMSNLASGVPDRFSSSGSGTDFTLRISRVEAEDVGVYYCAQNLELPWTFGGGTKLEIKR
notes: Expressed in CHO-S cells; also called chimeric antibody protein c6H11B10
As for B4, in [10], the binding result is given as “binds”.
